B1: human adenosine A2A receptor, full-length wild type (receptor, UniProt P29274 1-412, looked up)
chain: MPIMGSSVYITVELAIAVLAILGNVLVCWAVWLNSNLQNVTNYFVVSLAAADIAVGVLAIPFAITISTGFCAACHGCLFIACFVLVLTQSSIFSLLAIAIDRYIAIRIPLRYNGLVTGTRAKGIIAICWVLSFAIGLTPMLGWNNCGQPKEGKNHSQGCGEGQVACLFEDVVPMNYMVYFNFFACVLVPLLLMLGVYLRIFLAARRQLKQMESQPLPGERARSTLQKEVHAAKSLAIIVGLFALCWLPLHIINCFTFFCPDCSHAPLWLMYLAIVLSHTNSVVNPFIYAYRIREFRQTFRKIIRSHVLRQQEPFKAAGTSARVLAAHGSDGEQVSLRLNGHPPGVWANGSAPHPERRPNGYALGLVSGGSAQESQGNTGLPDVELLSHELKGVCPEPPGLDDPLAQDGAGVS
notes: adenosine A2A receptor, human, full-length wild type; also called A2AR-WT; A2AR-FL-WT
B2: A2AR-Q372ΔC (domain or fragment, human, UniProt P29274 1-372, looked up)
chain: MPIMGSSVYITVELAIAVLAILGNVLVCWAVWLNSNLQNVTNYFVVSLAAADIAVGVLAIPFAITISTGFCAACHGCLFIACFVLVLTQSSIFSLLAIAIDRYIAIRIPLRYNGLVTGTRAKGIIAICWVLSFAIGLTPMLGWNNCGQPKEGKNHSQGCGEGQVACLFEDVVPMNYMVYFNFFACVLVPLLLMLGVYLRIFLAARRQLKQMESQPLPGERARSTLQKEVHAAKSLAIIVGLFALCWLPLHIINCFTFFCPDCSHAPLWLMYLAIVLSHTNSVVNPFIYAYRIREFRQTFRKIIRSHVLRQQEPFKAAGTSARVLAAHGSDGEQVSLRLNGHPPGVWANGSAPHPERRPNGYALGLVSGGSAQ
notes: adenosine A2A receptor, human, C-terminus truncated at site Q372 (lacks residue C394)
B3: A2AR-P354ΔC (domain or fragment, human, UniProt P29274 1-354, looked up)
chain: MPIMGSSVYITVELAIAVLAILGNVLVCWAVWLNSNLQNVTNYFVVSLAAADIAVGVLAIPFAITISTGFCAACHGCLFIACFVLVLTQSSIFSLLAIAIDRYIAIRIPLRYNGLVTGTRAKGIIAICWVLSFAIGLTPMLGWNNCGQPKEGKNHSQGCGEGQVACLFEDVVPMNYMVYFNFFACVLVPLLLMLGVYLRIFLAARRQLKQMESQPLPGERARSTLQKEVHAAKSLAIIVGLFALCWLPLHIINCFTFFCPDCSHAPLWLMYLAIVLSHTNSVVNPFIYAYRIREFRQTFRKIIRSHVLRQQEPFKAAGTSARVLAAHGSDGEQVSLRLNGHPPGVWANGSAPHP
notes: adenosine A2A receptor, human, C-terminus truncated at site P354
B4: A2AR-N359ΔC with the ERR:AAA mutations (domain or fragment, human, UniProt P29274 1-359, looked up)
chain: MPIMGSSVYITVELAIAVLAILGNVLVCWAVWLNSNLQNVTNYFVVSLAAADIAVGVLAIPFAITISTGFCAACHGCLFIACFVLVLTQSSIFSLLAIAIDRYIAIRIPLRYNGLVTGTRAKGIIAICWVLSFAIGLTPMLGWNNCGQPKEGKNHSQGCGEGQVACLFEDVVPMNYMVYFNFFACVLVPLLLMLGVYLRIFLAARRQLKQMESQPLPGERARSTLQKEVHAAKSLAIIVGLFALCWLPLHIINCFTFFCPDCSHAPLWLMYLAIVLSHTNSVVNPFIYAYRIREFRQTFRKIIRSHVLRQQEPFKAAGTSARVLAAHGSDGEQVSLRLNGHPPGVWANGSAPHPAAAPN
notes: adenosine A2A receptor, human, C-terminus truncated at site N359, residues 355ERR357 substituted by 355AAA357; also called A2AR-ERR:AAA variant of A2AR-N359ΔC; N359ΔC ERR:AAA
B5: A2AR-G344ΔC (domain or fragment, human, UniProt P29274 1-344, looked up)
chain: MPIMGSSVYITVELAIAVLAILGNVLVCWAVWLNSNLQNVTNYFVVSLAAADIAVGVLAIPFAITISTGFCAACHGCLFIACFVLVLTQSSIFSLLAIAIDRYIAIRIPLRYNGLVTGTRAKGIIAICWVLSFAIGLTPMLGWNNCGQPKEGKNHSQGCGEGQVACLFEDVVPMNYMVYFNFFACVLVPLLLMLGVYLRIFLAARRQLKQMESQPLPGERARSTLQKEVHAAKSLAIIVGLFALCWLPLHIINCFTFFCPDCSHAPLWLMYLAIVLSHTNSVVNPFIYAYRIREFRQTFRKIIRSHVLRQQEPFKAAGTSARVLAAHGSDGEQVSLRLNGHPPG
notes: adenosine A2A receptor, human, C-terminus truncated at site G344
B6: A2AR-C394S (receptor, human, UniProt P29274 1-412, looked up)
chain: B1 chain with C394S
notes: adenosine A2A receptor, human, with C394S; also called A2AR-C394X variant
B7: A2AR-C394X variant with methionine at 394 (receptor, human, UniProt P29274 1-412, looked up)
chain: B1 chain with C394M
notes: also called A2AR-C394X (methionine)
B8: A2AR-C394X variant with leucine at 394 (receptor, human, UniProt P29274 1-412, looked up)
chain: B1 chain with C394L
notes: also called A2AR-C394X (leucine)
B9: A2AR-C394X variant with alanine at 394 (receptor, human, UniProt P29274 1-412, looked up)
chain: B1 chain with C394A
notes: also called A2AR-C394X (alanine)
B10: A2AR-FL-ERR:AAA (receptor, human, UniProt P29274 1-412, looked up)
chain: B1 chain with E355A, R356A, R357A
notes: adenosine A2A receptor, human, full length, residues 355ERR357 substituted by 355AAA357; also called A2AR-ERR:AAA variant of A2AR-FL-WT
B11: A2AR-C394X variant with valine at 394 (receptor, human, UniProt P29274 1-412, looked up)
chain: B1 chain with C394V
notes: also called A2AR-C394X (valine)
B12: A2AR-P395ΔC (domain or fragment, human, UniProt P29274 1-395, looked up)
chain: MPIMGSSVYITVELAIAVLAILGNVLVCWAVWLNSNLQNVTNYFVVSLAAADIAVGVLAIPFAITISTGFCAACHGCLFIACFVLVLTQSSIFSLLAIAIDRYIAIRIPLRYNGLVTGTRAKGIIAICWVLSFAIGLTPMLGWNNCGQPKEGKNHSQGCGEGQVACLFEDVVPMNYMVYFNFFACVLVPLLLMLGVYLRIFLAARRQLKQMESQPLPGERARSTLQKEVHAAKSLAIIVGLFALCWLPLHIINCFTFFCPDCSHAPLWLMYLAIVLSHTNSVVNPFIYAYRIREFRQTFRKIIRSHVLRQQEPFKAAGTSARVLAAHGSDGEQVSLRLNGHPPGVWANGSAPHPERRPNGYALGLVSGGSAQESQGNTGLPDVELLSHELKGVCP
notes: adenosine A2A receptor, human, C-terminus truncated at site P395
B13: A2AR-G349ΔC (domain or fragment, human, UniProt P29274 1-349, looked up)
chain: MPIMGSSVYITVELAIAVLAILGNVLVCWAVWLNSNLQNVTNYFVVSLAAADIAVGVLAIPFAITISTGFCAACHGCLFIACFVLVLTQSSIFSLLAIAIDRYIAIRIPLRYNGLVTGTRAKGIIAICWVLSFAIGLTPMLGWNNCGQPKEGKNHSQGCGEGQVACLFEDVVPMNYMVYFNFFACVLVPLLLMLGVYLRIFLAARRQLKQMESQPLPGERARSTLQKEVHAAKSLAIIVGLFALCWLPLHIINCFTFFCPDCSHAPLWLMYLAIVLSHTNSVVNPFIYAYRIREFRQTFRKIIRSHVLRQQEPFKAAGTSARVLAAHGSDGEQVSLRLNGHPPGVWANG
notes: adenosine A2A receptor, human, C-terminus truncated at site G349
B14: A2AR-N359ΔC (protein)
chain: B4 chain with A355E, A356R, A357R

Numbering of substitutions follows the chain as printed. Names may count otherwise.

The first series deals with the molecule itself. In words: SEC; consecutive rounds of SEC: a first round separates monomer from dimer/oligomer, a second round is run on the SEC-separated populations; total oligomer level relative to the monomer. (SEC sorts molecules by how far they enter the pores of the column.)
For the protein B1, the “total oligomer level (relative to monomer), SEC-separated monomer after redistribution” value was found to be 1.6 arbitrary units and the “total oligomer level (relative to monomer), initial sample” value came out at 2.87 arbitrary units.

B2: the “total oligomer level (relative to monomer), SEC-separated monomer after redistribution” value came to 1.4 arbitrary units and the “total oligomer level (relative to monomer), initial sample” value stood at 1.49 arbitrary units.

Another series concerns the molecule itself. In words: SEC; Superdex 200 10/300 GL; ligand-active receptor in running buffer 150 mM NaCl, 50 mM sodium phosphate, 10% glycerol, 0.1% DDM, 0.1% CHAPS, 0.02% CHS, pH 8.0; 4°C; HMW oligomer and dimer peak areas (Gaussian fit) relative to the monomer peak.
As for B3, the “dimer level (relative to monomer)” value came to 0.19 arbitrary units and the “total oligomer level (relative to monomer)” value worked out at 0.62 arbitrary units.

Consider B4, for which the “dimer level (relative to monomer)” value was found to be 0.48 arbitrary units and the “total oligomer level (relative to monomer)” value was determined as 0.85 arbitrary units.

For the protein B5, the binding result was “binds”.

With B1, the “total oligomer level (relative to monomer)” value is 1.37 arbitrary units.

Consider B6, for which the binding result is reported as “binds”.

In the case of B7, the binding result was “binds”.

Take B8: the binding result was “binds”.

Consider B9, for which the binding result is “binds”.

In the case of B10, the “dimer level (relative to monomer)” value was 0.29 arbitrary units and the “total oligomer level (relative to monomer)” value is 0.94 arbitrary units.

Take B11: the binding result is on record as “binds”.

Consider B12, for which the binding result is listed as “binds”.

Turning to B13, the binding result is recorded as “binds”.

The next series deals with the molecule itself. In words: SDS-PAGE and western blot densitometry of SEC-separated dimer; SEC-separated dimers incubated without or with 5 mM TCEP, then SDS-PAGE and western blot; dimer band area relative to monomer band area.
As for B1, the “dimer level (relative to monomer) with 5 mM TCEP” value turned out to be 0.51 arbitrary units and the “dimer level (relative to monomer) without TCEP” value was found to be 1.14 arbitrary units.

As for B2, the “dimer level (relative to monomer) with 5 mM TCEP” value worked out at 0.22 arbitrary units and the “dimer level (relative to monomer) without TCEP” value stood at 0.68 arbitrary units.

The target in a further series is P29274. The series can be described thus: SEC; Superdex 200 10/300 GL; ligand-active receptor in running buffer 150 mM NaCl, 50 mM sodium phosphate, 10% glycerol, 0.1% DDM, 0.1% CHAPS, 0.02% CHS, pH 8.0; 4°C; HMW oligomer and dimer peak areas (Gaussian fit) relative to the monomer peak.
Take B14: the “HMW oligomer level (relative to monomer)” value is on record as “ctrl: 0.68”.

Consider B4, for which the “HMW oligomer level (relative to monomer)” value was “ERR:AAA: 0.38”.

With B1, the “HMW oligomer + dimer level (relative to monomer)” value is recorded as “WT: 1.34” and the “HMW oligomer level (relative to monomer)” value is recorded as “ctrl: 0.88”.

B10: the “HMW oligomer level (relative to monomer)” value is “ERR:AAA: 0.66”.

The values above are taken from PMC8328514, “Homo-oligomerization of the human adenosine A2A receptor is driven by the intrinsically disordered C-terminus” (eLife, 2021).
